Results on 84 variants are retold here after the RNAGym collection of RNA variant scans (doi:10.1073/pnas.2313332121).

The labels stand for the following.
B1: TPR t1 (parent)
chain: GACCAAUCUGCCCUCAGAGCUCGAGAACAUCUUCGGAUGCAGAGGAGGCAGGCUUCGGUGGCGCGAUAGCGCCAACGUCCUCAACCUCCAAUGCAUCCCACCACAUGAUGAUGCCUGAAGAGCCUUGGUUUUUUG

Variants of B1 are the subject of the series. As to the kind of experiment: polymerase ribozyme fitness, log enrichment relative to wild type (log ratio); higher = more active; in vitro selection for triplet polymerase activity. In a few lines: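 Frozen incubation at −7 °C formed the core of a single, triplicate in vitro selection round applied to PCR-built, transcribed mutant libraries of each subunit of a heterodimeric triplet polymerase ribozyme. Extended constructs were gel-excised, captured with streptavidin beads and amplified by RT-PCR, and input and output libraries were Illumina-sequenced with a filter of ≥10 input reads and ≥1 read per output. Fitness is the logarithm of genotype enrichment relative to wild-type enrichment, with inverse-variance-weighted replicate averaging, and the logarithm is base 2.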
Regarding C11A A46U G93A, the “polymerase ribozyme fitness (log ratio)” value is -3.04.

As for G10C C11U C104A, the “polymerase ribozyme fitness (log ratio)” value is -0.93.

As to C11A C15U G48U A90G U112A, the “polymerase ribozyme fitness (log ratio)” value is -2.88.

Take C11G C34A G61U C62U C80G C86U G120A: the “polymerase ribozyme fitness (log ratio)” value was -6.66.

Regarding G10A G47U C56U C82A A83G, the “polymerase ribozyme fitness (log ratio)” value was -2.51.

In the case of C11A U126A U129C, the “polymerase ribozyme fitness (log ratio)” value is -2.33.

C11G C64A: the “polymerase ribozyme fitness (log ratio)” value was -5.88.

Take C11A G52A C70U A90G: the “polymerase ribozyme fitness (log ratio)” value was -2.22.

Turning to G10A G47C G51C U59G U81C C115A, the “polymerase ribozyme fitness (log ratio)” value was -5.77.

As for G10A C49A G93U U112G, the “polymerase ribozyme fitness (log ratio)” value was -1.97.

As for C11A C13G C20U C53U C64U U78G, the “polymerase ribozyme fitness (log ratio)” value was -3.27.

Regarding G10C C73A C101U U130C, the “polymerase ribozyme fitness (log ratio)” value was -0.689.

Take G10U C56A A74G U132C: the “polymerase ribozyme fitness (log ratio)” value was -1.83.

As to G10U C53U G65A A91U C104G A121U, the “polymerase ribozyme fitness (log ratio)” value is -7.6.

Regarding G10U C13G U78A C104U, the “polymerase ribozyme fitness (log ratio)” value stood at 0.299.

As to G10C C15U, the “polymerase ribozyme fitness (log ratio)” value is -0.996.

As for G10U G39U G77C A100C, the “polymerase ribozyme fitness (log ratio)” value was -2.58.

Turning to G10U G60U, the “polymerase ribozyme fitness (log ratio)” value is -0.931.

As for G10C C13A G57U G61C A111U, the “polymerase ribozyme fitness (log ratio)” value is -5.2.

Regarding G10C C13A G58A G71A C98U, the “polymerase ribozyme fitness (log ratio)” value was -3.11.

On to C11G C64U A74U C123U, for which the “polymerase ribozyme fitness (log ratio)” value came out at 0.798.

G10C C49A G71A: the “polymerase ribozyme fitness (log ratio)” value was -2.07.

With C11A C49A C53U A90U U126C, the “polymerase ribozyme fitness (log ratio)” value was -4.54.

For the variant G10C U59G C88A C104A, the “polymerase ribozyme fitness (log ratio)” value is -3.65.

For C11G C15U C20U C70G, the “polymerase ribozyme fitness (log ratio)” value was -3.71.

On to G10U G45A U106A, for which the “polymerase ribozyme fitness (log ratio)” value is -0.0856.

Regarding G10A G120U G135C, the “polymerase ribozyme fitness (log ratio)” value worked out at 1.62.

As for C11A G47A C62A, the “polymerase ribozyme fitness (log ratio)” value is -3.74.

For the variant G10U C53U, the “polymerase ribozyme fitness (log ratio)” value turned out to be 0.0146.

With G10U A50C C80U G120U, the “polymerase ribozyme fitness (log ratio)” value was -0.0895.

In the case of C11A U32C A37C, the “polymerase ribozyme fitness (log ratio)” value is -1.07.

On to C11A A37U G63C U116G, for which the “polymerase ribozyme fitness (log ratio)” value was -5.29.

As to G10A C70A, the “polymerase ribozyme fitness (log ratio)” value is -1.32.

For the variant G10A C70G, the “polymerase ribozyme fitness (log ratio)” value was -2.45.

With G10C C72U A118G, the “polymerase ribozyme fitness (log ratio)” value was -1.84.

In the case of G10A C53G G61A A95G, the “polymerase ribozyme fitness (log ratio)” value was -0.503.

For C11A C40U G48C C79U C102U, the “polymerase ribozyme fitness (log ratio)” value is -5.15.

Consider G10C C70G, for which the “polymerase ribozyme fitness (log ratio)” value is -3.67.

In the case of G10C G63A A75G C123U, the “polymerase ribozyme fitness (log ratio)” value was -0.173.

Consider C11A C101G, for which the “polymerase ribozyme fitness (log ratio)” value is -3.13.

For G10U A43G G47A A74G, the “polymerase ribozyme fitness (log ratio)” value was -3.06.

With G10A C13U G61U, the “polymerase ribozyme fitness (log ratio)” value was -0.325.

G10U G52U C73G: the “polymerase ribozyme fitness (log ratio)” value is -0.827.

Regarding C11A C12A C62U C102A C115U U130G, the “polymerase ribozyme fitness (log ratio)” value was -8.31.

With C11G A24G C49G U59G, the “polymerase ribozyme fitness (log ratio)” value was -2.66.

On to G10C C11U C62G A84U A108G, for which the “polymerase ribozyme fitness (log ratio)” value is -4.22.

Take G10A G19A: the “polymerase ribozyme fitness (log ratio)” value was -0.895.

As for C11G A29G A43C C49A A74C C85G G113A G135U, the “polymerase ribozyme fitness (log ratio)” value is -3.78.

In the case of C11A G120U, the “polymerase ribozyme fitness (log ratio)” value turned out to be 0.0217.

Take G10A G47C C89U C124G: the “polymerase ribozyme fitness (log ratio)” value was -0.208.

In the case of G10C G120U, the “polymerase ribozyme fitness (log ratio)” value is -1.23.

Consider G10A U109A U133G, for which the “polymerase ribozyme fitness (log ratio)” value is -7.59.

Take G10A C13U U14A G61U C104G: the “polymerase ribozyme fitness (log ratio)” value was -6.29.

Consider G10C G42A A43U C80A U132A, for which the “polymerase ribozyme fitness (log ratio)” value is -5.05.

In the case of G10U C101A U125G, the “polymerase ribozyme fitness (log ratio)” value is -2.32.

With C11A C73U, the “polymerase ribozyme fitness (log ratio)” value is -1.2.

Turning to C11A A84U U92C C98U, the “polymerase ribozyme fitness (log ratio)” value was -4.14.

In the case of C11G C31U U55C A90G, the “polymerase ribozyme fitness (log ratio)” value is -4.94.

Consider C11A U81C A90G, for which the “polymerase ribozyme fitness (log ratio)” value is -2.45.

Regarding G10U C79A, the “polymerase ribozyme fitness (log ratio)” value was -0.723.

With G10A G71C, the “polymerase ribozyme fitness (log ratio)” value was -0.717.

Turning to C11A C40G, the “polymerase ribozyme fitness (log ratio)” value is -3.12.

As to C11A C115U G122U, the “polymerase ribozyme fitness (log ratio)” value is -0.883.

With G10U, the “polymerase ribozyme fitness (log ratio)” value was -0.124.

Consider G10C, for which the “polymerase ribozyme fitness (log ratio)” value was -0.497.

As for G10A C102A, the “polymerase ribozyme fitness (log ratio)” value was -1.65.

Regarding G10U G17U G45A C85U C123G, the “polymerase ribozyme fitness (log ratio)” value was -0.92.

On to C11A A46U, for which the “polymerase ribozyme fitness (log ratio)” value is -2.08.

Regarding C11G C13G G45A G117A, the “polymerase ribozyme fitness (log ratio)” value was -1.92.

For G10U G35C, the “polymerase ribozyme fitness (log ratio)” value was -5.02.

In the case of C11G A27G G39U G107U A121G U125G, the “polymerase ribozyme fitness (log ratio)” value is -6.41.

On to G10A C80U, for which the “polymerase ribozyme fitness (log ratio)” value was -0.522.

As for G10C G42A G63U A91C G113A G122U, the “polymerase ribozyme fitness (log ratio)” value was -4.47.

In the case of C11G C73G C101U U112C G117C, the “polymerase ribozyme fitness (log ratio)” value is -3.04.

For C11G C64U C114G C115A C123G C124A, the “polymerase ribozyme fitness (log ratio)” value was -4.26.

For the variant G10U G48C, the “polymerase ribozyme fitness (log ratio)” value was -0.778.

Take G10C A83U: the “polymerase ribozyme fitness (log ratio)” value is -1.28.

As for C11G C94U, the “polymerase ribozyme fitness (log ratio)” value is -0.128.

For C11G A119G, the “polymerase ribozyme fitness (log ratio)” value was 0.484.

On to G10U C56U, for which the “polymerase ribozyme fitness (log ratio)” value worked out at 0.114.

In the case of G10U U14A C53G A95U G120U, the “polymerase ribozyme fitness (log ratio)” value was determined as 0.647.

With G10C C11A C31A G47U G107U G113A, the “polymerase ribozyme fitness (log ratio)” value was -2.42.

On to C11A U38G C56U C86G U112C, for which the “polymerase ribozyme fitness (log ratio)” value was -2.57.

Turning to C11G A37C A41C C101A A121C G122U, the “polymerase ribozyme fitness (log ratio)” value was -1.01.
